Assay results as given in patent US8173668B1 (Alcon Research, Ltd., priority 2007, dated 2012).

T1: B2-receptors in h-NPE cells (Homo sapiens, UniProt P30411)
T1 construct: B2-receptor proteins in h-TM, h-CM and h-NPE cells; endogenous in cells; host or cells: human trabecular meshwork (h-TM), human ciliary muscle (h-CM) and human non-pigmented ciliary epithelial (h-NPE) cells
T1 sequence (P30411 1-391): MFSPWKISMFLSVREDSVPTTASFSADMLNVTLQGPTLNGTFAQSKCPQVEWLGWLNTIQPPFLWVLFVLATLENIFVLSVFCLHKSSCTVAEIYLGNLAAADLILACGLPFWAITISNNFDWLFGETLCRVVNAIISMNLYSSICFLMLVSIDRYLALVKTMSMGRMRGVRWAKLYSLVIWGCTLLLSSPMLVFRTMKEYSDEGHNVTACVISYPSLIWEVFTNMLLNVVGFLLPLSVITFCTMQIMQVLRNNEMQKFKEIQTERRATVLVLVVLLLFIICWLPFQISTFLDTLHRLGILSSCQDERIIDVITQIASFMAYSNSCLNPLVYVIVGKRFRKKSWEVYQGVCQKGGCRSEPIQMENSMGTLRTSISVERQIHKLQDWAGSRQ

T2: B2-receptors in h-CM cells (Homo sapiens, UniProt P30411)
T2 construct: B2-receptor proteins in h-TM, h-CM and h-NPE cells; endogenous in cells; host or cells: human trabecular meshwork (h-TM), human ciliary muscle (h-CM) and human non-pigmented ciliary epithelial (h-NPE) cells
T2 sequence (P30411 1-391): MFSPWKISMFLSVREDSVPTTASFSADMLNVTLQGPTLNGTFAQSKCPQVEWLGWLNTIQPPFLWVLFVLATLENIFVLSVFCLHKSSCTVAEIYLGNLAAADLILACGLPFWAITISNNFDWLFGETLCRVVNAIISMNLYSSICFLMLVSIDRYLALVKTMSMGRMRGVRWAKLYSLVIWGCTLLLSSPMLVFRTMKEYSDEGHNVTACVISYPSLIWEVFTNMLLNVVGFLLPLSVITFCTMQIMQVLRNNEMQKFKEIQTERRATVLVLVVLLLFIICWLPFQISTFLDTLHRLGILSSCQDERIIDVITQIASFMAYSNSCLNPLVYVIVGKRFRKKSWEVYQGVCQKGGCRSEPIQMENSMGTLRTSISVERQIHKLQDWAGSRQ

T3: B2-receptors in h-TM cells (Homo sapiens, UniProt P30411)
T3 construct: B2-receptor proteins in h-TM, h-CM and h-NPE cells; endogenous in cells; host or cells: human trabecular meshwork (h-TM), human ciliary muscle (h-CM) and human non-pigmented ciliary epithelial (h-NPE) cells
T3 sequence (P30411 1-391): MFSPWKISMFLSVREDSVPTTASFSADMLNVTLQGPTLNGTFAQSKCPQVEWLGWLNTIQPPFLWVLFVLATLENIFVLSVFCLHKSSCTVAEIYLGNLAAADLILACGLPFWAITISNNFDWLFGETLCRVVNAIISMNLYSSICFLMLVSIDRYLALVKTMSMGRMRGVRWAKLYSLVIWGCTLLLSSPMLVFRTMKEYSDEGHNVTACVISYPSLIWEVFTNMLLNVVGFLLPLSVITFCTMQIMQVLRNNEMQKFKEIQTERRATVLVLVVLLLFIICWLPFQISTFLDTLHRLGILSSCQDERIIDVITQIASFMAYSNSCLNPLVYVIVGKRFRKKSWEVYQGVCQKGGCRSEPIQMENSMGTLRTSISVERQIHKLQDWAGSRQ

T4: human bradykinin B2-receptor (human, UniProt P30411 1-391)
T4 sequence (looked up): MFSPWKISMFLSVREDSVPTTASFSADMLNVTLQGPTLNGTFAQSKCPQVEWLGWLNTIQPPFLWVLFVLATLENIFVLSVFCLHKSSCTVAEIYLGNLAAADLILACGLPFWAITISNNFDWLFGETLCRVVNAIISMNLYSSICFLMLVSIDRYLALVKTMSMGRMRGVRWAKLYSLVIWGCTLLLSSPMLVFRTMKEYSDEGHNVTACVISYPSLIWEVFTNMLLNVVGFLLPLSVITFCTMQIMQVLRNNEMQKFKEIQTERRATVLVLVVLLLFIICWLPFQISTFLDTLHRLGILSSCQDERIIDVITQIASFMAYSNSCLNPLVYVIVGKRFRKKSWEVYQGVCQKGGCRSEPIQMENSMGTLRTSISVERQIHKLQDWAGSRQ


Tests used:
[1] = system: conscious ocular hypertensive cynomolgus monkey eyes; experiment: IOP response in lasered (hypertensive) eyes of conscious cynomolgus monkeys, topical ocular; format: in vivo; conditions: for % Change in IOP: Table 10, 300 μg topical ocular
Protocol: Intraocular pressure (IOP) is determined with an Alcon Pneumatonometer (Alcon Laboratories, Inc., Fort Worth, Tex.) after light corneal anesthesia with 0.1% proparacaine. Right eyes are hypertensive as a result of laser trabeculoplasty. After a baseline IOP measurement, test compound is instilled in the right eyes only of 8-10 cynomolgus monkeys. Vehicle is instilled in the right eyes of 5-6 additional animals. Subsequent IOP measurements are taken at 1, 3, and 6 hours. IOP measurements are also taken on left eyes (normotensive and untreated) at each of these time points. The percent change in IOP from baseline is determined for each animal for every IOP measurement (Sharif et al. J. Ocular Pharmacol. Ther. 17: 305-317, 2001; May et al., J Pharmacol Exp Ther. 306: 301-309, 2003; Sharif et al. Invest. Ophthalmol. Vis. Res. 47: 4001-4010, 2006). Group mean and standard error of the mean (SEM) are calculated for each time point. […] In cases where the compound of invention has poor ocular bioavailability, the compound may need to be administered intracamerally or intravitreally in order to observe the IOP-lowering efficacy.
The IOP-lowering effect was slow to develop but significant IOP reduction was observed even 3 hours post-dosing with maximum ocular hypotension observed 16-48 hours post-dosing (Tables 6-8; FIGS. 3b-5).

[2] = molecular target: human bradykinin B2-receptor (human) (UniProt P30411); experiment: cell-based or functional assay
[3] = molecular target: T1, B2-receptors in h-NPE cells; experiment: [Ca2+]i mobilization (FLIPR) in h-NPE cells, agonist mode; format: cell-based; conditions: read-out: Intrinsic Activity (Emax, % max relative to BK)
Protocol: (§1) On the day of the experiment, one vial of FLIPR Calcium Assay Kit dye is re-suspended in 50 mL of a FLIPR buffer consisting of Hank's Balanced Salt Solution (HBSS), 20 mM HEPES, and 2.5 mM probenecid, pH 7.4. Cells are loaded with the calcium-sensitive dye by addition of an equal volume (50 μL) to each well of the 96-well plate and incubated with dye for 1 h at 23° C. After this time, the test compound plate and cell plate are placed in the FLIPR instrument. At the beginning of an experimental run, a signal test is performed to check the basal fluorescence signal from the dye-loaded cells and the uniformity of the signal across the plate. The basal fluorescence is adjusted between 8000-12000 counts by modifying the exposure time, the camera F-stop, or the laser power. Instrument settings for a typical assay are the following: laser power 0.3-0.6 W, camera F-stop F/2, and exposure time 0.4 sec.
(§2) Fluorescence data are collected in real-time at 1.0 sec intervals for the first 60 secs and at 6.0 sec intervals for an additional 120 secs. […] The data are then analyzed using an automated, iterative, sigmoidal curve-fitting computer program to obtain the potency and intrinsic activities of the test agents as previously described (Sharif et al. J. Pharmacol. Exp. Ther. 286: 1094-1102, 1998; Sharif et al. Invest. Ophthalmol. Vis. Sci. 39:2562-2571, 1998; Kelly et al. J. Pharmacol. Exp. Ther. 304: 238-245, 2003). The sources of materials and reagents for such assays can be found in the references cited above.

[4] = molecular target: T2, B2-receptors in h-CM cells; experiment: [Ca2+]i mobilization (FLIPR) in h-CM cells, agonist mode; format: cell-based; conditions: read-out: Intrinsic Activity (Emax, % max relative to BK)
Protocol: as §1, §2

[5] = molecular target: T3, B2-receptors in h-TM cells; experiment: [Ca2+]i mobilization (FLIPR) in h-TM cells, agonist mode; format: cell-based; conditions: HTM, read-out: Intrinsic Activity (Emax, % max relative to BK)
Protocol: as §1, §2

[6] = molecular target: T4, human bradykinin B2-receptor; experiment: cell-based or functional assay

Molecule | [Ca2+]i mobilization in h-CM cells: Intrinsic Activity (Emax, % max relative to BK) [2] | [Ca2+]i mobilization in h-NPE cells: Intrinsic Activity (Emax, % max relative to BK) [2] | [Ca2+]i mobilization in h-NPE cells: Potency (EC50; nM) [2] | [Ca2+]i mobilization in h-TM cells: Intrinsic Activity (Emax, % max relative to BK) [2] | [Ca2+]i mobilization in h-TM cells: Potency (EC50; nM) [2] | [Ca2+]i mobilization in h-CM cells: Intrinsic Activity (Emax, % max relative to BK) [6] | [Ca2+]i mobilization in h-CM cells: Potency (EC50; nM) [6] | [Ca2+]i mobilization in h-NPE cells: Intrinsic Activity (Emax, % max relative to BK) [6] | [Ca2+]i mobilization in h-NPE cells: Potency (EC50; nM) [6] | [Ca2+]i mobilization in h-TM cells: Intrinsic Activity (Emax, % max relative to BK) [6] | [Ca2+]i mobilization in h-TM cells: Potency (EC50; nM) [6] | further results
CCCC[P+](CCCC)(CCCC)Cc1ccc(NC(=O)[C@H](Cc2ccc3ccccc3c2)NC(=NC2CCCCC2)NC2CCCCC2)cc1.[Cl-] [WIN-64338, reference compound] |  |  |  |  |  |  |  |  |  |  |  | modulation of IOP ([1]; 300 μg topically administered): failed to modulate IOP; % Change in IOP ([1]; Dose 1/1 hr): 1.7 ± 1.6%; % Change in IOP ([1]; Dose 1/3 hr): −10.4 ± 2.8%; % Change in IOP ([1]; Dose 1/6 hr): 1.3 ± 1.3%
Des-Arg^9-BK (Arg-Pro-Pro-Gly-Phe-Ser-Pro-Phe) (peptide) | 94% | 70% | 16000 nM | 112% | 2570 nM |  |  |  |  |  |  | [Ca2+]i mobilization in h-CM cells: Potency (EC50; nM) [2]: 4260 nM
H-RPPGFSPFR-OH [BK] |  |  |  |  |  |  |  |  |  |  |  | Emax [3]: 98%; Emax [4]: 104%; Emax [5]: 110%
Hyp^3-BK (Arg-Pro-Hyp-Gly-Phe-Ser-Pro-Phe-Arg) (peptide) | 105% | 93% | 6 nM | 110% | 0.9 nM |  |  |  |  |  |  | 
MKRPPGFSPFR [Met-Lys-BK (Met-Lys-Arg-Pro-Pro-Gly-Phe-Ser-Pro-Phe-Arg)] |  |  |  |  |  | 110% | 16.1 nM | 77% | 125 nM | 111% | 6.5 nM | 
KRPPGFSPFR [Lys-BK (Lys-Arg-Pro-Pro-Gly-Phe-Ser-Pro-Phe-Arg)] |  |  |  |  |  | 115% | 3.2 nM | 90% | 19.6 nM | 115% | 1.9 nM | 
